In article PMC9253770, “The C-Terminal Domain of Y-Box Binding Protein 1 Exhibits Structure-Specific Binding to Poly(ADP-Ribose), Which Regulates PARP1 Activity”:

Target: YB-1 (Δ1-2) (UniProt P67809 1-230)
Assay: fluorescence anisotropy; DNA binding similar to full-length; EC50 within 1100-3100 nM, exact value only in figure; 50 mM Tris-HCl pH 8.0, 40 mM NaCl, 1 mM DTT, 100 ug/ml BSA, 50 nM FAM-DNA, 25 C (anisotropy). PAR EMSA rows left out: PAR is a heterogeneous polymer without a defined nucleic acid sequence
Details: protein: recombinant; label: 5'-FAM on strand 1; nicked 32-bp duplex, blunt ends; nick opposite strand 1 positions 15/16

YB-1 (Δ1-2), sequence (P67809 1-230, stated change not applied): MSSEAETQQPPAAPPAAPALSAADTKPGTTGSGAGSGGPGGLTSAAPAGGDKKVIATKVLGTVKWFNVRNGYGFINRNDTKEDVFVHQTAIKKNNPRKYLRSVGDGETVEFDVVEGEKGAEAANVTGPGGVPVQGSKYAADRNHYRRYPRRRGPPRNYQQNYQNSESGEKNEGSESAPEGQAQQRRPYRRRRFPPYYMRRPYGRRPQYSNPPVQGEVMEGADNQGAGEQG

B1: Nick (FAM-labeled nicked DNA duplex) (dsDNA)
DNA 1: CCGCTATTTCAACCCTTTGCAGTCCCAGAAGG
DNA 2: GGGTTGAAATAGCGG
DNA 3: CCTTCTGGGACTGCAAA
modifications: phosphate on the 17-mer (printed as 5'-p…)
- binding result: binds
